Biological target: Kelch domain of human Keap1 (residues 321-609) (human), Q14145
Test: ITC

Sequence of Kelch domain of human Keap1 (residues 321-609) (human), Q14145 (Q14145 321-609): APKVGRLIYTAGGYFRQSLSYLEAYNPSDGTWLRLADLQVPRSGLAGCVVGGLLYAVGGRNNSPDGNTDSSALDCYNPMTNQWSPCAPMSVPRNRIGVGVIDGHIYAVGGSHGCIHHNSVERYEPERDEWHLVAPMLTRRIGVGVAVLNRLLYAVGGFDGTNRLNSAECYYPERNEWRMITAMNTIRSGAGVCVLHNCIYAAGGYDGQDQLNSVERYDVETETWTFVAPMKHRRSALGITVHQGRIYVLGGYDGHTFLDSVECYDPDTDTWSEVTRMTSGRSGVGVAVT

| Binder | Kd [nM] | dH [kcal/mol] | stoichiometry N |
| --- | --- | --- | --- |
| ANGNAENEENGEQEADNEVD (modifications not checked) [PTMA isoform 1 peptide (20-mer)] | 11600 | -14.7 | 1.07 |
| FAQLQLDEETGEFLPIQPAQ (modifications not checked) [NRF2 site 1 peptide (20-mer)] | 23 | -17 | 1.08 |
| FAQLQLDPETGEFLPIQPAQ (modifications not checked) [NRF2 site 1 E78P peptide (20-mer)] | 7 | -16.8 |  |

Next, values leading:

| Kd [nM] | dH [kcal/mol] | stoichiometry N | Binder |
| --- | --- | --- | --- |
| 2620 | -17.3 | 1.05 | ANGNANEENGEQEADNEVDE (modifications not checked) [PTMA isoform 2 peptide (20-mer)] |
| 1300 |  |  | LSSKEVDPSTGELQSLQMPE (modifications not checked) [p62 peptide (20-mer)] |

From article PMC3725505
